Consider 1 substance from patent US20220048954A1.

The target in this experiment is mouse angiotensin converting enzyme 2 (ACE2) (mouse) (UniProt Q8R0I0). Briefly: cell-based or functional assay.

Values joined by “and” are separate entries in the source; they are usually repeats but may differ in a detail not shown here. Equal values may be shown once.

Sequence of UniProt Q8R0I0 (Q8R0I0 18-805): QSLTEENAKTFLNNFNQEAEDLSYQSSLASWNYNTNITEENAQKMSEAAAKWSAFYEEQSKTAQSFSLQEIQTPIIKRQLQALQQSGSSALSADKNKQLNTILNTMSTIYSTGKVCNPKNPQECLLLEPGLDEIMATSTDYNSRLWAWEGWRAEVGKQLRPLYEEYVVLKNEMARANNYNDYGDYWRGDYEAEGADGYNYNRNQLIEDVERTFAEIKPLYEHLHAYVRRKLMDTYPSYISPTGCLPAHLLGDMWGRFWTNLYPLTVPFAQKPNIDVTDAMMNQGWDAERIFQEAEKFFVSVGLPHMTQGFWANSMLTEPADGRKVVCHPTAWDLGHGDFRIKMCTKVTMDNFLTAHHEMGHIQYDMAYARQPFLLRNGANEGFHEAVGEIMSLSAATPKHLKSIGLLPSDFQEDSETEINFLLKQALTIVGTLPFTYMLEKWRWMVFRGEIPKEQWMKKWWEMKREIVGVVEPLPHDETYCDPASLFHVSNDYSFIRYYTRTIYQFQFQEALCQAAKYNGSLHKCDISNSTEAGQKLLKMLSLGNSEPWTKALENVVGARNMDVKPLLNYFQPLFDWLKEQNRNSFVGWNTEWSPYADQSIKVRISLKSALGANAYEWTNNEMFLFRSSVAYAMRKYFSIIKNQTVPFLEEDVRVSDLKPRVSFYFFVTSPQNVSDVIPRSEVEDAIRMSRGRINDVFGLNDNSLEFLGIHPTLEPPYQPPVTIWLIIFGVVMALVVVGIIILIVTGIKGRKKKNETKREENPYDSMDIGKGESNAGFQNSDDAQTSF

Regarding “SARS-CoV2 Spike protein, WT (614D), with C-terminal HA tag (from UniProt P0DTC2 14-1273)”, the cell fusion assay, FACS red/green double positive events (x over the baseline without Spike) was 17 and 18.
